# B1: TaVf (transaminase from Vibrio fluvialis) (Vibrio fluvialis) (protein)
# chain: MNKPQSWEARAETYSLYGFTDMPSLHQRGTVVVTHGEGPYIVDVNGRRYLDANSGLWNMVAGFDHKGLIDAAKAQYERFPGYHAFFGRMSDQTVMLSEKLVEVSPFDSGRVFYTNSGSEANDTMVKMLWFLHAAEGKPQKRKILTRWNAYHGVTAVSASMTGKPYNSVFGLPLPGFVHLTCPHYWRYGEEGETEEQFVARLARELEETIQREGADTIAGFFAEPVMGAGGVIPPAKGYFQAILPILRKYDIPVISDEVICGFGRTGNTWGCVTYDFTPDAIISSKNLTAGFFPMGAVILGPELSKRLETAIEAIEEFPHGFTASGHPVGCAIALKAIDVVMNEGLAENVRRLAPRFEERLKHIAERPNIGEYRGIGFMWALEAVKDKASKTPFDGNLSVSERIANTCTDLGLICRPLGQSVVLCPPFILTEAQMDEMFDKLEKALDKVFAEVA
# notes: full length, untagged by primers (pTrc99A-taVf), E. coli W3110 crude extract
# B2: TaCv (transaminase from Chromobacterium violaceum) (Chromobacterium violaceum ATCC 12472) (protein)
# chain: MQKQRTTSQWRELDAAHHLHPFTDTASLNQAGARVMTRGEGVYLWDSEGNKIIDGMAGLWCVNVGYGRKDFAEAARRQMEELPFYNTFFKTTHPAVVELSSLLAEVTPAGFDRVFYTNSGSESVDTMIRMVRRYWDVQGKPEKKTLIGRWNGYHGSTIGGASLGGMKYMHEQGDLPIPGMAHIEQPWWYKHGKDMTPDEFGVVAARWLEEKILEIGADKVAAFVGEPIQGAGGVIVPPATYWPEIERICRKYDVLLVADEVICGFGRTGEWFGHQHFGFQPDLFTAAKGLSSGYLPIGAVFVGKRVAEGLIAGGDFNHGFTYSGHPVCAAVAHANVAALRDEGIVQRVKDDIGPYMQKRWRETFSRFEHVDDVRGVGMVQAFTLVKNKAKRELFPDFGEIGTLCRDIFFRNNLIMRACGDHIVSAPPLVMTRAEVDEMLAVAERCLEEFEQTLKARGLA
# notes: full length, codon-optimized, untagged by primers (pTrc99A-taCv), E. coli W3110 crude extract
# How the values were obtained:
# [1] = substrate: C[C@H](N)C(=O)O; assay: HPLC of hexylamine formation, crude extract; assay type: biochemical, Vibrio fluvialis; conditions: 10 mM hexanal as acceptor, potassium phosphate pH 7.4 (50 mM in results, 100 mM in methods), 37°C
# Excerpt: HPLC of hexylamine formation, crude extract on TaVf (transaminase from Vibrio fluvialis)
# [2] = substrate: C[C@H](N)C(=O)O; assay: HPLC of hexylamine formation, crude extract; assay type: biochemical, Chromobacterium violaceum; conditions: 10 mM hexanal as acceptor, potassium phosphate pH 7.4 (50 mM in results, 100 mM in methods), 37°C
# Excerpt: HPLC of hexylamine formation, crude extract on TaCv (transaminase from Chromobacterium violaceum)
Protein,Km [1] [mM],Vmax [1] [µmol/min/mg],Km [2] [mM],Vmax [2] [µmol/min/mg]
B1,20.00 ± 1.10,0.3,–,–
B2,–,–,35.00 ± 2.20,2
